# Reference: patent US9492315B2, “Implantable therapeutic device” (ForSight Vision4, Inc., priority 2010, dated 2016)
# Like-named read-outs stand apart in the source and are kept apart here.
# Key:
# [1] = Calculations of Lucentis concentrations in the vitreous, monkey model (bolus injections and device Simulations 1-5); conditions: parameter applied in Simulations 1-5 (column = simulation)
# From the text: A model can be derived to describe the release rate as a function of time by relating the change of concentration in the reservoir to the release rate described above. This model assumes a solution of therapeutic agent where the concentration in the reservoir is uniform. In addition, the concentration in the receiving fluid or vitreous is considered negligible (cV=0). Solving the differential equation and rearrangement yields the following equations describing the concentration in the reservoir as a function of time, t, and volume of the reservoir, VR, for release of a therapeutic agent from a solution in a reservoir though a porous structure. cR=cR0exp((−DPA/FLVR)t) and Cumulative Release=1−cR/cR0
# A bolus injection into the vitreous may be modeled as a single exponential with rate constant, k=0.693/half-life and a cmax=dose/Vv where Vv is the vitreous volume. […] The vitreous volume is approximately 1.5 mL for the rabbit and monkey and 4.5 mL for the human eye. […] This concentration decays to a vitreous concentration of 0.1 ug/mL after about a month.
# For devices with extended release, the concentration in the vitreous changes slowly with time. […]
# The first column used the measured Cmax (Gaudreault et al.) while the second used a calculated Cmax based on the dose and volume of the vitreous.
# [2] = Determined concentration profiles of Lucentis/ranibizumab in the vitreous humor for injections into the device or bolus (FIGS. 19B-19T, 32A-32E, 37); parameters: species or system human; conditions: parameter used for FIGS. 19K to 19P, half-life 9 days
# From the text: The therapeutic device 100 can be tuned to deliver a target therapeutic concentration profile based on the volume of formulation injected into the device. The injected volume may comprise a substantially fixed volume, for example within about +/−30% of an intended predetermined target volume. The volume of the reservoir can be sized with the release rate index so as to release the therapeutic agent for an extended time substantially greater than the treatment time of a corresponding bolus injection. The device can also be tuned to release the therapeutic agent based on the half life of the therapeutic agent in the eye. The device volume and release rate index comprise parameters that can be tuned together based on the volume of formulation injected and the half life of the therapeutic agent in the eye. The following equations can be used to determine therapeutic device parameters suitable for tuning the device. Rate=Vr(dCr/dt)=−D(PA/TL)Cr where Rate=Rate of release of therapeutic agent from device Cr=concentration of therapeutic agent in reservoir Vr=volume of reservoir D=Diffusion constant PA/TL=RRI P=porosity A=area T=tortuosity=F=channel parameter. […]
# These concentration profiles were determined with modeling and calculations as described herein. […]
# [3] = system: retinal thickness / lesion size in wet AMD; test: Low dose Lucentis MIC study in wet AMD patients with OCT imaging (Example 18); format: in vivo, human
# From the text: OCT (Optical Coherence Tomography) imaging was used to assess the condition of the region of the macula at the back surface of the treated eye. The OCT technique relies on the measurement of certain properties of light (e.g. echo time, intensity of reflection) that has been directed at the area of study and can measure very small amounts of reflected light. Because these cellular features are essentially transparent it is possible to use OCT methodology to generate three dimensional representations of the area.
# The regions of interest were analyzed with a two dimensional representation of the cross section of the retinal wall at one longitudinal scan location of the OCT image. In these “OCT scan” images is it possible to interrogate very local areas of interest more specifically. The OCT scans were carefully selected to directly compare the thickness and anatomical structure of specific sites within a lesion, pre and post treatment, for the purpose of assessing the effect of injected drug including a reduction in sub-retinal fluid.
# The OCT images were measured the day after injection and at 2-3 days post injection.
# Further studies can be conducted by one or ordinary skill in the based on the teachings described herein to determine empirically the MIC for a sustained release device and cumulative effect of the drug over the time of release.
# [4] = rabbit and monkey (Gaudreault et al.), cited from earlier work
# [5] = humans (Lucentis package insert); cited from earlier work
# [6] = system: Grade IV choroidal neovascularization (CNV) lesions; conditions: intravitreal injection, all doses tested, cynomolgus monkeys, laser photocoagulation model; cited from earlier work
substance,measurement,setting,value
ranibizumab [Lucentis],"Rate constant, k",[1],0.264 day⁻¹
same,"Rate constant, k",[2],0.077 day⁻¹
same,Treatment Effect Observed?,"[3]; decrease in size of the lesion on OCT after low dose bolus, patient # in r2, dose in r4",Yes
same,MIC for a sustained release device,"[3]; human patients, wet AMD",≤ 1 ug per ml
same,half-life in the vitreous,[4],two to four
same,half-life in the vitreous,[4]; listed as ranibizumab,approximately 3 days
same,half-life in the vitreous,[5],~220 h
same,development of Grade IV CNV lesions,[6],completely inhibited
